Test results taken from article PMC5384220, “Highly selective inhibition of histone demethylases by de novo macrocyclic peptides” (Nature Communications, 2017).

Assays:
Test in all cases: cell-based or functional assay
KDM1A = KDM1A (human, UniProt O60341 1-852)
[1] = target: T1, N-terminally Hexa-His-tagged KDM4A (residues 1–359) (human, UniProt O75164 1-359)
T1 sequence (looked up): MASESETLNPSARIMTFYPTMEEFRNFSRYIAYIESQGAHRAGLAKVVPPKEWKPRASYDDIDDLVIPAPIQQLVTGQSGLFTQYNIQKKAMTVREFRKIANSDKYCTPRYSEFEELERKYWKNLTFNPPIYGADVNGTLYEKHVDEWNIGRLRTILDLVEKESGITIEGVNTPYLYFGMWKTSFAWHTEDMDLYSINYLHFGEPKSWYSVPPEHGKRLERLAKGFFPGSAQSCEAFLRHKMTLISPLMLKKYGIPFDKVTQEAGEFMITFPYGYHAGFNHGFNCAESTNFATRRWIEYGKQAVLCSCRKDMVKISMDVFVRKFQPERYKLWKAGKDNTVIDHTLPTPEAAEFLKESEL

KDM5C = KDM5C (human, UniProt P41229 1-1560)
[2] = target: prolyl hydroxylase domain 2 (UniProt Q9GZT9 1-426)
KDM4C = target: T2, KDM4C (human, UniProt Q9H3R0 1-1056)
T2 sequence (looked up): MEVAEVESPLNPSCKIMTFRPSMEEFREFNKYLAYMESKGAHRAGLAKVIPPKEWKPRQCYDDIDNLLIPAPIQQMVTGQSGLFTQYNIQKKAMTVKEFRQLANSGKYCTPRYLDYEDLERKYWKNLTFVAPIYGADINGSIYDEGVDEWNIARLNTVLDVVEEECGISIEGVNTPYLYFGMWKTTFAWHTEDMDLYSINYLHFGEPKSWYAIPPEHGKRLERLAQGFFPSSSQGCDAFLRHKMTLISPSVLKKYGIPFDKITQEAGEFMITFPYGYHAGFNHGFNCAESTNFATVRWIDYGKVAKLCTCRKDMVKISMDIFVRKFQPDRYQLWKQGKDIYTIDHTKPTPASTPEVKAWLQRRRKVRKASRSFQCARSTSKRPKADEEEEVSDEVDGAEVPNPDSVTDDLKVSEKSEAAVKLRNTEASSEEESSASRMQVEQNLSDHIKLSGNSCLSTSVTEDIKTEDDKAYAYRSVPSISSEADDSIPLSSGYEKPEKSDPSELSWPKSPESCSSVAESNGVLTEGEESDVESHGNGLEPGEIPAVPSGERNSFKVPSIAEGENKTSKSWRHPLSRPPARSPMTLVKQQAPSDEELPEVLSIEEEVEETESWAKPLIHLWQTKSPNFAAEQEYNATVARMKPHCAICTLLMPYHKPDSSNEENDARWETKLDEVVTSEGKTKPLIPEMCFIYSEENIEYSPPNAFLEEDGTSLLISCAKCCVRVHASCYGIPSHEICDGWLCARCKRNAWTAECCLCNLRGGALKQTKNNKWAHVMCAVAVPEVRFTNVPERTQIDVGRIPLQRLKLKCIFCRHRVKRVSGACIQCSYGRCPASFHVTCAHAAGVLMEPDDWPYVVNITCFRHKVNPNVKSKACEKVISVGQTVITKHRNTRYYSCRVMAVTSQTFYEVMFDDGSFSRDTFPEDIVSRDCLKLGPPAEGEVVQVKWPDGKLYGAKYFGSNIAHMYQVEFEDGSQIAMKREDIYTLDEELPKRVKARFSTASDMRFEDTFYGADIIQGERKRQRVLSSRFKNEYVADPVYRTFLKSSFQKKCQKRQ

Sequence of prolyl hydroxylase domain 2 (Q9GZT9 whole entry, the tested form may be a part): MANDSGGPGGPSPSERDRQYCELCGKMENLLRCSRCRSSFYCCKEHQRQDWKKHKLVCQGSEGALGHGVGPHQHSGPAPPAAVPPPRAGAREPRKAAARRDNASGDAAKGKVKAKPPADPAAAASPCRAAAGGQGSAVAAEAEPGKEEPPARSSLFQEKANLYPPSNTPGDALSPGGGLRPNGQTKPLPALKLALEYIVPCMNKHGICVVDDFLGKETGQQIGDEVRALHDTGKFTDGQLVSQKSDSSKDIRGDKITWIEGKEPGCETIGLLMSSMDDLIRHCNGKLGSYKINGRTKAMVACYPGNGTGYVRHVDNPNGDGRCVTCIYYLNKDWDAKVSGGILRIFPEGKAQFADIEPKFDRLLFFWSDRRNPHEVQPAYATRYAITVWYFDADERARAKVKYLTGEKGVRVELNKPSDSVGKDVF
Sequence of KDM5C (P41229 whole entry, the tested form may be a part): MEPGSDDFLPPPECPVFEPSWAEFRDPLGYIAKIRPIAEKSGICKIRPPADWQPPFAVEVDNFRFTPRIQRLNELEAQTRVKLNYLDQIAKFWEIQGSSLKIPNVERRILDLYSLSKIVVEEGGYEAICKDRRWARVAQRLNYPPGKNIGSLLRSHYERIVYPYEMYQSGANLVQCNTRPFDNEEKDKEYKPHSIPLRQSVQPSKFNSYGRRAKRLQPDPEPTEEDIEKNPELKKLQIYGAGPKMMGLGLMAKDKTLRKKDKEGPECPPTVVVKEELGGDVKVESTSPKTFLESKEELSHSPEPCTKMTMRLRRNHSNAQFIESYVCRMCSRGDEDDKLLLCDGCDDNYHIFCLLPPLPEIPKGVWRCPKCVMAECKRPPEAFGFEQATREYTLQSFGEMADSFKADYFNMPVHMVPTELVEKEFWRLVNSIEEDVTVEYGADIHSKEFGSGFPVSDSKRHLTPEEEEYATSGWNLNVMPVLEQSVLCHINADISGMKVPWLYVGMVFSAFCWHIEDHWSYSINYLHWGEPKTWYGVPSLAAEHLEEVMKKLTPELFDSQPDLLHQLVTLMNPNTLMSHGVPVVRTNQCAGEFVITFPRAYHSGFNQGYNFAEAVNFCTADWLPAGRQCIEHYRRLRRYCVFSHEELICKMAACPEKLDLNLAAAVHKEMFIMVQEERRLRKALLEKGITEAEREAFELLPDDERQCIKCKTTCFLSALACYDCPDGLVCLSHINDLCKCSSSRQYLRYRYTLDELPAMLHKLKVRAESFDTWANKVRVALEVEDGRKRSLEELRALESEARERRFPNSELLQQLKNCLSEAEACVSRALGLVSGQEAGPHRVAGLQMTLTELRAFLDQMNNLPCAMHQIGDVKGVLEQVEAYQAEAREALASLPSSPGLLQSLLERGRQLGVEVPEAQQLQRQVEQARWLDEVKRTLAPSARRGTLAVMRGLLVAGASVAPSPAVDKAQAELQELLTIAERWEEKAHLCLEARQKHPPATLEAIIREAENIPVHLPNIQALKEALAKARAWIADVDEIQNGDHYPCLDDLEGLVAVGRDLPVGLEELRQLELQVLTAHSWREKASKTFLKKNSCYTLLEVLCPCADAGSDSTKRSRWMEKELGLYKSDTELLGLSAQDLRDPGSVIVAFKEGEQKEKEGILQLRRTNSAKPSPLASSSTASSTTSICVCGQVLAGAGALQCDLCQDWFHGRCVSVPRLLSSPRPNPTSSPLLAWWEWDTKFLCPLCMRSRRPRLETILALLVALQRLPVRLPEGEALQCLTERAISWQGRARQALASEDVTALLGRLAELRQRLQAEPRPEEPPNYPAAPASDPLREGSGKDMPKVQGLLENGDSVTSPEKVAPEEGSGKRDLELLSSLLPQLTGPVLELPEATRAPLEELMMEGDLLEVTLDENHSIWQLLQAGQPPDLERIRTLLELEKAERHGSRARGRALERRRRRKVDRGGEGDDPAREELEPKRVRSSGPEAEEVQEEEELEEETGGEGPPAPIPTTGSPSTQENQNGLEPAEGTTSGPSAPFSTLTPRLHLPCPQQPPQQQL

B1: CP4 (peptide)
chain: YLKSRRSGLTWIPC
modifications: not fully specified; N-terminal L-Tyr (^LTyr library, N-chloroacetyl-L-Tyr) cyclised by a thioether to a downstream cysteine
KDM1A
  IC50 of inhibition of KDM1A/LSD1 (fluorescence-based assay): > 10 µM
[1]
  IC50 of inhibition of demethylase activity (AlphaScreen activity assay): 0.02 µM
KDM5C
  IC50 of inhibition of demethylase activity (AlphaScreen activity assay): > 10 µM
[2]
  IC50 of inhibition of PHD2 (MALDI–TOF MS assay): > 1000 µM
KDM4C
  IC50 of inhibition of demethylase activity (AlphaScreen activity assay): 0.017 µM
